In PMC8558138:
Where “and” joins values, the source holds several entries; their conditions need not be identical. Equal values may be shown once. Read-outs that look alike come from different tables or passages of the source. Each block holds one substance with its values, some of them ahead of it.

Columns and labels:
[1] = target: pHERV-W ENV soluble antigen from MS brain active lesions (human (endogenous in MS brain lesions)); test: automated capillary Western blot (Simple Western, WES); soluble fraction of frozen brain white matter blocks (MS active lesions), fos-cholin 16 extraction, >= 120 kDa enriched on AMICON, denaturing conditions; detection with GN_mAb_Env01-biotin, or GN_mAb_Env04 after deglycosylation
[2] = target: pHERV-W ENV expressed in transfected HEK293T cells (pCMV-HERV-W ENV) (human); test: automated capillary Western blot (Simple Western, WES); lysates of transfected HEK293T cells in RIPA with 1% fos-cholin 16, soluble and insoluble fractions, denatured at 95 °C; 12-230 kDa and 66-440 kDa matrices; detection with GN_mAb_Env01, GN_mAb_Env04, GN_mAb_Env-K01 or anti-FLAG
[3] = target: pHERV-W ENV expressed in transfected HEK293T cells (pCMV-HERV-W ENV) (human); test: as above; remark: listed apart in the source
[4] = target: Purified recombinant full-length HERV-W ENV protein (pHERV-W ENV) produced in E. coli (human); test: automated capillary Western blot (Simple Western, WES); purified rENV monomers incubated in serum-free DMEM with sulfatides from bovine brain; detection with GN_mAb_Env01, or GN_mAb_Env04 after deglycosylation
[5] = target: Purified recombinant full-length HERV-W ENV protein (pHERV-W ENV) produced in E. coli (human); test: automated capillary Western blot (Simple Western, WES); purified rENV incubated up to 24 h at 37 °C in DMEM with 10% FBS (also with 1.5% SDS overnight: only a low proportion of hexamer); samples denatured at 95 °C; detection with GN_mAb_Env01; denaturation-resistant oligomers

Substance: pHERV-W ENV soluble antigen from MS brain active lesions (natural protein)
- stoichiometry N [1]: 6

- stoichiometry N [2]: 2
- stoichiometry N [3]: 3
Substance: pHERV-W ENV expressed in transfected HEK293T cells (pCMV-HERV-W ENV) (natural protein)

Substance: Purified recombinant full-length HERV-W ENV protein (pHERV-W ENV) produced in E. coli (natural protein)
- stoichiometry N [4]: 6
- stoichiometry N [5]: 6 and 2
